In patent US20150125424A1 (MICREOS B V, published 2015):

T1: Phage S16 (whole phage particle) (Phage S16, UniProt M1EAS5 1-638; M1EBB2 1-249)
T1 construct: The whole virion stood in the assay; All other virion proteins are left out; also called bacteriophage S16; CBS130493
T1 sequence 1: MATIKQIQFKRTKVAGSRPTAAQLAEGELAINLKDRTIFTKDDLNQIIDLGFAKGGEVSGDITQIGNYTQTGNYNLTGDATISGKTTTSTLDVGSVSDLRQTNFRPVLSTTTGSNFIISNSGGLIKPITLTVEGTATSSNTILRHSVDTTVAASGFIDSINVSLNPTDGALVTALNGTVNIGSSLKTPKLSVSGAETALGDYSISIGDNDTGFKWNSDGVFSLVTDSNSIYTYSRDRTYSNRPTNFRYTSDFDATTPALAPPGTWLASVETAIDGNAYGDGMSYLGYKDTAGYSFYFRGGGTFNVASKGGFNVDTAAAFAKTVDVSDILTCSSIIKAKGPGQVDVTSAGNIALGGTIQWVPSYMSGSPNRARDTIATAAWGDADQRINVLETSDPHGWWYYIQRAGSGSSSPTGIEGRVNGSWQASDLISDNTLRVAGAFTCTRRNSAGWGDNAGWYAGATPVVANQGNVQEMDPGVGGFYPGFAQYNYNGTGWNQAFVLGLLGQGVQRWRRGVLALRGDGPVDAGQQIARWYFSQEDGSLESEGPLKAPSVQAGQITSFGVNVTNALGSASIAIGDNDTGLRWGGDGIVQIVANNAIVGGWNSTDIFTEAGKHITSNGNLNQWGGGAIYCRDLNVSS
T1 sequence 2: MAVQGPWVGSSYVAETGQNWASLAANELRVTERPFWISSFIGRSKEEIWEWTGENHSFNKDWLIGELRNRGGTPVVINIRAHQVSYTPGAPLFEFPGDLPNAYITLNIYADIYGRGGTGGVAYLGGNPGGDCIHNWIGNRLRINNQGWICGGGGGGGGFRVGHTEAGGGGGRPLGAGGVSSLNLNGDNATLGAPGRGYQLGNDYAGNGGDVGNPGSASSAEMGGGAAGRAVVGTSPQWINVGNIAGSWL


Assays:
[1] = target: outer membrane protein C (OmpC) of S. Typhimurium DT7155 (S. Typhimurium DT7155); test: control of competition in pull down assay; S. Tm. DT7155 wt cells pre-incubated with HGFP, then phage S16 added; value is remaining S16 adsorption
[2] = target: T1, Phage S16 (whole phage particle); test: pull down assay (phage adsorption) on E. coli K-12 wt and E. coli K-12 ΔompC::ompC(K-12) cells

Row | Molecule | adsorption ratio of S16 after pre-incubation [1] [%] | binding result [2]
1 | HGFP (6xHis-tagged GFP alone, control) | 93.8 | 
2 | OmpC of E. coli K-12 (receptor, whole, on cells; Presented on E. coli K-12 wt cells, or expressed in trans from pBAD18 Amp^r in E. coli K-12 ΔompC; also called ompC(K-12)) AEVYNKDGNKLDLYGKVDGLHYFSDNKDVDGDQTYMRLGFKGETQVTDQLTGYGQWEYQIQGNSAENENNSWTRVAFAGLKFQDVGSFDYGRNYGVVYDVTSWTDVLPEFGGDTYGSDNFMQQRGNGFATYRNTDFFGLVDGLNFAVQYQGKNGNPSGEGFTSGVTNNGRDALRQNGDGVGGSITYDYEGFGIGGAISSSKRTDAQNTAAYIGNGDRAETYTGGLKYDANNIYLAAQYTQTYNATRVGSLGWANKAQNFEAVAQYQFDFGLRPSLAYLQSKGKNLGRGYDDEDILKYVDVGATYYFNKNMSTYVDYKINLLDDNQFTRDAGINTDNIVALGLVYQF |  | no binding
